# Laboratory results published in patent US20230212267A1.
# Biological target: SARS-CoV-2 Spike protein on pseudovirus (wild type) (SARS-CoV-2) (UniProt P0DTC2)
# Assay: cell-based or functional assay
substance,measurement,value
ACE2-Ig (positive control of the pseudovirus neutralization assay) (Fc fusion),"IC50, pseudovirus neutralization",0.9 µg/mL
